This note sets out measurements from US20260085105A1 (Amgen, published 2026).

The target of assay [1] is T1, HNRNPR peptide on HLA-A*02:01 (human).
T1 peptide: KVWGNVVTV
Nature of the assay: killing.

For assay [2], the target named is T2, HERC4 peptide on HLA-A*02:01 (human).
T2 peptide: KVLEILHRV
Nature of the assay: killing.

In assay [3] the target is T3, AXIN1 peptide on HLA-A*02:01 (human).
T3 peptide: ILDEHVQRV
The experiment in a line: killing.

Assay [4] concerns the target T4, SYNE3 peptide on HLA-A*02:01 (human).
T4 peptide: KLLDLQVRV
Nature of the assay: killing.

Assay [5] deals with T5, NSD1 peptide on HLA-A*02:01 (human).
T5 peptide: KVQEQVHKV
The experiment in a line: killing.

For assay [6], the target named is T6, TP2 peptide on HLA-A*02:01 (human).
T6 peptide: KILEDVVGV
Nature of the assay: killing.

In assay [7] the target is T7, MIA3 peptide on HLA-A*02:01 (human).
T7 peptide: KVLDKVFRA
The experiment in a line: killing.

Assay [8] deals with T8, ANO5 peptide on HLA-A*02:01 (human).
T8 peptide: IVMEHVVFL
Nature of the assay: killing.

Assay [9] has as its target T9, GRP78 peptide on HLA-A*02:01 (human).
T9 peptide: KVTHAVVTV
Nature of the assay: killing.

In assay [10] the target is T10, PSME2 peptide on HLA-A*02:01 (human).
T10 peptide: KVLERVNAV
The experiment in a line: killing.

Assay [11] addresses T11, GPC5 peptide on HLA-A*02:01 (human).
T11 peptide: KLLEQVNRI
The experiment in a line: killing.

The target of assay [12] is T12, HTR5A peptide on HLA-A*02:01 (human).
T12 peptide: KVLETLVTV
Nature of the assay: killing.

The target of assay [13] is T13, TRMT1L peptide on HLA-A*02:01 (human).
T13 peptide: VALEHFVLV
Nature of the assay: killing.

Assay [14] addresses T14, KIAA1033 peptide on HLA-A*02:01 (human).
T14 peptide: KVLNKVITV
Nature of the assay: killing.

Assay [15] addresses T15, ATAD2 peptide on HLA-A*02:01 (human).
T15 peptide: KILEALQRV
Nature of the assay: killing.

The target of assay [16] is T16, TSC1 peptide on HLA-A*02:01 (human).
T16 peptide: SLLGHVIRL
The experiment in a line: killing.

For assay [17], the target named is T17, CNOT1 peptide on HLA-A*02:01 (human).
T17 peptide: KVLGIVVGV
Nature of the assay: killing.

Assay [18] deals with T18, RG1L peptide on HLA-A*02:01 (human).
T18 peptide: FLLETVVRV
The experiment in a line: killing.

The target in assay [19] is T19, PTRF peptide on HLA-A*02:01 (human).
T19 peptide: KLLEKVRKV
The experiment in a line: killing.

Assay [20] deals with T20, MADD peptide on HLA-A*02:01 (human).
T20 peptide: ILLEHKVVL
Nature of the assay: killing.

Assay [21] addresses T21, MAGE-A4 (100% identical in MAGEA8) peptide on HLA-A*02:01 (human).
T21 peptide: KVLEHVVRV
Nature of the assay: multimer staining.

Assay [22] deals with T22, XIAP peptide on HLA-A*02:01 (human).
T22 peptide: FLYTGEGTV
Nature of the assay: killing.

In assay [23] the target is T23, IMPDH1 peptide on HLA-A*02:01 (human).
T23 peptide: IIADGGIQTV
The experiment in a line: killing.

Assay [24] deals with T24, ATOH8 peptide on HLA-A*02:01 (human).
T24 peptide: VLEDGPWKTV
The experiment in a line: killing.

The target of assay [25] is T25, ACTB peptide on HLA-A*02:01 (human).
T25 peptide: DSGDGVTHTV
The experiment in a line: killing.

Assay [26] has as its target T26, COX14 peptide on HLA-A*02:01 (human).
T26 peptide: TVYGGYLCSV
The experiment in a line: killing.

Assay [27] deals with T27, FAS peptide on HLA-A*02:01 (human).
T27 peptide: ALLDGRLQVV
Nature of the assay: killing.

The target in assay [28] is T28, MYOF peptide on HLA-A*02:01 (human).
T28 peptide: FFVYDEPGHAV
The experiment in a line: killing.

The target in assay [29] is T29, STXBP5 peptide on HLA-A*02:01 (human).
T29 peptide: YTYDEAIHSV
Nature of the assay: killing.

The target of assay [30] is T30, DPYSL2 peptide on HLA-A*02:01 (human).
T30 peptide: GLYDGPVCEV
The experiment in a line: killing.

The target of assay [31] is T31, KEAP1 peptide on HLA-A*02:01 (human).
T31 peptide: GVIDGHIYAV
The experiment in a line: killing.

The target in assay [32] is T32, PLD4 peptide on HLA-A*02:01 (human).
T32 peptide: GLFDGVPTTA
The experiment in a line: killing.

Assay [33] concerns the target T33, PGRMC1 peptide on HLA-A*02:01 (human).
T33 peptide: LLKEGEEPTV
The experiment in a line: killing.

For assay [34], the target named is T34, AK2 peptide on HLA-A*02:01 (human).
T34 peptide: FLLDGFPRTV
The experiment in a line: killing.

Assay [35] deals with T35, DDAH peptide on HLA-A*02:01 (human).
T35 peptide: VLFTGREFFV
Nature of the assay: killing.

The target of assay [36] is T36, DPYSL4 peptide on HLA-A*02:01 (human).
T36 peptide: GLYDGPVHEV
Nature of the assay: killing.

Assay [37] has as its target T37, CDNP2 peptide on HLA-A*02:01 (human).
T37 peptide: GVYGGSVHEA
The experiment in a line: killing.

Assay [38] deals with T38, UTRN peptide on HLA-A*02:01 (human).
T38 peptide: NQWDGTQHGV
Nature of the assay: killing.

Assay [39] addresses T39, DYNC1H1 peptide on HLA-A*02:01 (human).
T39 peptide: FLSDPQVHTV
Nature of the assay: killing.

For assay [40], the target named is T40, VPS13B peptide on HLA-A*02:01 (human).
T40 peptide: GLMDGSPHFL
Nature of the assay: killing.

The target in assay [41] is T41, OSBPL10 peptide on HLA-A*02:01 (human).
T41 peptide: SQYSGQLHEV
The experiment in a line: killing.

Assay [42] deals with T42, MAGE-A4 peptide on HLA-A*02:01 (human).
T42 peptide: GVYDGREHTV
The experiment in a line: multimer staining.

Another assay concerns the target … (MAGEA8)/HLA-A*02:01 (human). Nature of the assay: cell-based or functional assay.

B1: TCR4 (TCR10) (TCR, V domains shown)
Valpha: LAKTTQPISMDSYEGQEVNITCSHNNIATNDYITWYQQFPSQGPRFIIQGYKTKVTNEVASLFIPADRKSSTLSLPRVSLSDTAVYYCLVGGDEDMRFGAGTRLTVKP
Vbeta: EAGVAQSPRYKIIEKRQSVAFWCNPISGHATLYWYQQILGQGPKLLIQFQNNGVVDDSQLPKDRFSAERLKGVDSTLKIQPAKLEDSAVYLCASSLEYGPTYEQYFGPGTRLTVT
Consider B1, for which the binding result in assay [1], in assay [2], in assay [3], in assay [4], in assay [5] and in assay [6] was “no recognition” each time. Besides, the binding result in assay [7], in assay [8], in assay [9], in [10], in [11] and in assay [12] was “no recognition” each time. Besides, the binding result in [13], in [14], in assay [15], in assay [16], in assay [17] and in [18] was “no recognition” throughout. Further, the binding result in assay [19] is listed as “no recognition”; in assay [20], “no recognition”; in [21] it was “recognises”.

B2: TCR6 of Tables 1A and 1B (TCR7 of the examples) (TCR, V domains shown)
Valpha: AQTVTQSQPEMSVQEAETVTLSCTYDTSENNYYLFWYKQPPSRQMILVIRQEAYKQQNATENRFSVNFQKAAKSFSLKISDSQLGDTAMYFCAFVDSGYALNFGKGTSLLVTP
Vbeta: DVKVTQSSRYLVKRTGEKVFLECVQDMDHENMFWYRQDPGLGLRLIYFSYDVKMKEKGDIPEGYSVSREKKERFSLILESASTNQTSMYLCASSLDGARTQYFGPGTRLTVL
On to B2, for which the binding result in assay [1], in [2], in assay [3], in assay [4], in [5] and in assay [6] was “no recognition” in each case. Further, the binding result in [7], in assay [8], in assay [9], in assay [10], in [11] and in [12] was “no recognition” each time. In addition, the binding result in [13], in assay [14], in assay [15], in assay [16], in [17] and in assay [18] was “no recognition” each time. Further, the binding result in assay [19] is “no recognition”; in assay [20], “no recognition”; in assay [21], “recognises”.

B3: TCR8 of Tables 1A and 1B (printed TCR18) (TCR, V domains shown)
Valpha: KQEVTQIPAALSVPEGENLVLNCSFTDSAIYNLQWFRQDPGKGLTSLLLIQSSQREQTSGRLNASLDKSSGRSTLYIAASQPGDSATYLCAVDAHARLMFGDGTQLVVKP
Vbeta: EPEVTQTPSHQVTQMGQEVILRCVPISNHLYFYWYRQILGQKVEFLVSFYNNEISEKSEIFDDQFSVERPDGSNFTLKIRSTKLEDSAMYFCASISGEQYFGPGTRLTVT
On to B3, for which the binding result in assay [22], in [23], in assay [24], in assay [25], in [26] and in assay [27] was “no recognition” throughout. In addition, the binding result in [28], in [29], in [30], in assay [31], in [32] and in assay [33] was “no recognition” each time. Moreover, the binding result in assay [34], in assay [35], in [36], in assay [37], in [38] and in [39] was “no recognition” each time. In addition, the binding result in assay [40] was “no recognition”; in assay [41], “no recognition”; in [42], “recognises”.

B4: TCR18 (running number 7 of Table 1A) (TCR, V domains shown)
V domain 1: AQTVTQSQPEMSVQEAETVTLSCTYDTSENNYYLFWYKQPPSRQMILVIRQEAYKQQNATENRFSVNFQKAAKSFSLKISDSQLGDTAMYFCALLDSGNTPLVFGKGTRLSVIA
V domain 2: NAGVTQTPKFRILKIGQSMTLQCAQDMNHNYMYWYRQDPGMGLKLIYYSVGAGITDKGEVPNGYNVSRSTTEDFPLRLELAAPSQTSVYFCASSYTNNEQFFGPGTRLTVLE
As to B4, the “fold difference in EC50 between the MAGEA4 and MAGEA8 peptides, TDCC on peptide-loaded T2 cells” value with … (MAGEA8)/HLA-A*02:01 is more than 1000 fold.

B5: TCR7 of Tables 1A and 1B (TCR18) (TCR, V domains shown)
Valpha: AQTVTQSQPEMSVQEAETVTLSCTYDTSENNYYLFWYKQPPSRQMILVIRQEAYKQQNATENRFSVNFQKAAKSFSLKISDSQLGDTAMYFCALLDSGNTPLVFGKGTRLSVIA
Vbeta: NAGVTQTPKFRILKIGQSMTLQCAQDMNHNYMYWYRQDPGMGLKLIYYSVGAGITDKGEVPNGYNVSRSTTEDFPLRLELAAPSQTSVYFCASSYTNNEQFFGPGTRLTVL
Regarding B5, the binding result in assay [22], in assay [23], in [24], in [25], in assay [26] and in assay [27] was “no recognition” each time. Also, the binding result in [28], in assay [29], in assay [30], in assay [31], in assay [32] and in [33] was “no recognition” each time. The binding result in [34], in assay [35], in [36], in [37], in assay [38] and in [39] was “no recognition” each time. For the same molecule, the results for the binding result in assay [40], in [41] and in assay [42] were “no recognition”, “no recognition” and “recognises”, respectively.
